# Literature values, collected in PMC10231660.
# Like-named read-outs stand apart in the source and are kept apart here.
# What was measured:
# [1] = target: MC1R (UniProt Q01726)
# [2] = target: ZNRF3 (Homo sapiens) (UniProt Q9ULT6)
# [3] = target: BMPR1A ECD (Homo sapiens) (UniProt P36894)
# [4] = target: ZNRF3 (Homo sapiens) (UniProt Q9ULT6); remark: listed apart in the source
# [5] = target: ZNRF3 (Homo sapiens) (UniProt Q9ULT6); remark: listed apart in the source
# [6] = target: ZNRF3 (Homo sapiens) (UniProt Q9ULT6); remark: listed apart in the source
# Chain of UniProt Q9ULT6 (Q9ULT6 56-219): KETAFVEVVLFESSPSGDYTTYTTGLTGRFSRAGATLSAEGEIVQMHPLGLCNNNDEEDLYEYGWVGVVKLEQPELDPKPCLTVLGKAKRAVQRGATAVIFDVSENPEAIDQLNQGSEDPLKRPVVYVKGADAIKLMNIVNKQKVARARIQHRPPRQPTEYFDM
# Chain of UniProt Q01726 (Q01726 whole entry): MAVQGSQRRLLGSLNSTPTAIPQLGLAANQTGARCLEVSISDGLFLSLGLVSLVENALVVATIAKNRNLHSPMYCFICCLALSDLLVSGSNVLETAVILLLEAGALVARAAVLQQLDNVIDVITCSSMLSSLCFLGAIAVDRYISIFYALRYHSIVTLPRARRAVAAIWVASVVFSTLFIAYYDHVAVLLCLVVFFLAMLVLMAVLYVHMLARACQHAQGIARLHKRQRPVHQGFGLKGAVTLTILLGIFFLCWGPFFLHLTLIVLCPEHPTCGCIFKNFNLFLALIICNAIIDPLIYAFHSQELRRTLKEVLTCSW
# Chain of UniProt P36894 (P36894 24-152): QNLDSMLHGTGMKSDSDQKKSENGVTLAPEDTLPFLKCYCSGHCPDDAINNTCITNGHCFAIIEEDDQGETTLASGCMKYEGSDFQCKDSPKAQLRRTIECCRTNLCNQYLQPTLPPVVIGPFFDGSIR
substance,measurement,setting,value
ASP CTD (from UniProt P42127),Kd,[1],1 nM
RSPO4 FU1 (from UniProt Q2I0M5),Kd,[2],300000 nM
RSPO2 (from UniProt Q6UXX9),Kd,[3],4.8 nM
RSPO2 FU1 (from UniProt Q6UXX9),Kd,[4],25 nM
RSPO3 FU1 (from UniProt Q9BXY4),Kd,[5],60 nM
RSPO1 FU1 (from UniProt Q2MKA7),Kd,[6],6800 nM
